Assay results from the DeepSol protein solubility set.

Assay: soluble on expression in E. coli; label from the status in PepcDB or PDB records

Row | Sequence | soluble on expression in E. coli
1 | MLSLDSRKIIHHHHHHHHHDIKDGGATTGEWIGQTDHDDSDNHHQHHHHHPWCSDEVLALLRFRSTVENWFPEFTWEHTSRKLAEVGFKRSPQECKEKFEEEERRYFNSNNNNNNNTNDHQHIGNYNNKGNNYRIFSEVEEFYHHGHDNEHVSSEVGDNQNKRTNLVEGKGNVGETVQDLMAEDKLRDQDQGQVEEASMENQRNSIEVGKVGNVEDDAKSSSSSSLMMIMKEKKRKKRKKEKERFGVLKGFCEGLVRNMIAQQEEMHKKLLEDMVKKEEEKIAREEAWKKQEIERVNKEVEIRAQEQAMASDRNTNIIKFISKFTDHDLDVVQNPTSPSQDSSSLALRKTQGRRKFQTSSSLLPQTLTPHNLLTIDKSLEPFSTKTLKPKNQNPKPPKSDDKSDLGKRWPKDEVLALINIRRSISNMNDDDHKDENSLSTSSKAVPLWERISKKMLEIGYKRSAKRCKEKWENINKYFRKTKDVNKKRPLDSRTCPYFHQLTALYSQPPTGTTATTATTATSARDLDTRPEENRVGSQDPDISVPMHVDGDGAGDKSNVQFSGFDLEF | soluble
2 | MKKVLIVFGTRPEAIKMAPLVQQLCQDNRFVAKVCVTGQHREMLDQVLELFSITPDFDLNIMEPGQTLNGVTSKILLGMQQVLSSEQPDVVLVHGDTATTFAASLAAYYQQIPVGHVEAGLRTGNIYSPWPEEGNRKLTAALTQYHFAPTDTSRANLLQENYNAENIFVTGNTVIDALLAVREKIHTDMDLQATLESQFPMLDASKKLILVTGHRRESFGGGFERICQALITTAEQHPECQILYPVHLNPNVREPVNKLLKGVSNIVLIEPQQYLPFVYLMDRAHIILTDSGGIQEEAPSLGKPVLVMRETTERPEAVAAGTVKLVGTNQQQICDALSLLLTDPQAYQAMSQAHNPYGDGKACQRIADILAK | not soluble
3 | MTATNDKGLQQIATIIEQHQTLPGAMLPILHAIQNDLSFIPSNALPLIAKALNVSKAEVHGVISFYHHFRTEEPGAHVIEICRGESCQAMGSRALEENIKQNLSIDYHQTSKDRQYTLEPVYCLGNCACSPAMRIGDDIHGELDLQKFEQIIASLNTYSLELK | not soluble
4 | HFASTRSFLDTVKLDHAIWKNNIYRLLQSGSFGETVNSHSECRLGQWYYRGDGKAYSQLRSYAQLEAPHKGVHDSGRDAMNHAKSGNMAGMVTSINSMEDTSEQVVIHIDRLMDEIIAN | not soluble
5 | MANDDLQQRLDKGMYGTPLVNPEEQHKYMGTFRERCRLSMTVAEMKDAQNQKHLLEELAKHPEVTVLLNGEISSDLQSTYIKLLNQHGANFKIVNNFVENNPDSLGLLLAEKHAVDEPVIDVTEKYPQATETPKEEPTAKKSFWQKLFHS | not soluble
6 | QEQAVILRFGKYYETVGPGLNFYFPPIDKRFQENVTRERAYSKQGQMLTEDENIVEVPLTVQYKISNLQDFVLNVDQPEVSLQQATESALRHVAGSTTMDRILTEGREQMATEVRERLQRFLDTYRTGITVTQVNIQSAQAPREVQEAFDDVIRAREDEQREKNQAEAYANGVVPEARGQAQRIIEEANGYRDEVISRAQGEADRFSKLLVEYRKAPEVTRERLYLDTMQEVFSQTSKVLVTGQQGQNNLLYLPLDKMIDGRNAAPATGAGASAGGGSASASDLGSRIVNDLRQQDARTRESR | not soluble
7 | MGSDKIHHHHHHMRLFKSLKNPKKTDAKLPKKSSGLNNRAAIGIDIDQHSIKMVQLSGRSLNQIQLEKYVIAKLPKNIIQGNKVQNYDQLVTYLQQAYAKLGTSCKNIVASVPQNLATIEQLTYTAKDAELDLQGFVESSISEASSISLEEANYDYQVLSQSAVGEAVLSVASRKDEIEPLIDAFNAAGMKLSALDVDIFGQYNAYALWINHFAPELADEKVAIFGVYAAQTYALVIQDGKILYKQETSVSEEQLNQLIQRTYQVTAEKAEEIINSPQKPSDYQESVANYFNQQITQEIQRVLQFYYTTQTADDMTDIKHILLTGEAVRQKGIAQTVASQTNADVQCVHPARYFANDLKTDEQQFELDAPTLTKAFGLAVRGL | not soluble
8 | SVQNPVEVSCSLQTQIFVFTPGASSVTIIWWVCFLTSVSMSAQTSPAEKGLNPGLMCQESYACSGTDEAIFECDECCSLQCLRCEEELHRQERLRNHERIRLKPGHVPYCDLCKGLSGHLPGVRQRAIVRCQTCKINLCLECQKRTHSGGNKRRHPVTVYNVSNLQESLEAEEMDEETKRKKMTEKVVSFLLVDENEEIQVTNEEDFIRKLDCKPDQHLKVVSIFGNTGDGKSHTLNHTFFYGREVFKTSPTQESCTVGVWAAYDPVHKVAVIDTEGLLGATVNLSQRTRLLLKVLAISDLVIYRTHADRLHNDLFKFLGDASEAYLKHFTKELKATTARCGLDVPLSTLGPAVIIFHETVHTQLLGSDHPSEVPEKLIQDRFRKLGRFPEAFSSIHYKGTRTYNPPTDFSGLRRALEQLLENNTTRSPRHPGVIFKALKALSDRFSGEIPDDQMAHSSFFPDEYFTCSSLCLSCGVGCKKSMNHGKEGVPHEAKSRCRYSHQYDNRVYTCKACYERGEEVSVVPKTSASTDSPWMGLAKYAWSGYVIECPNCGVVYRSRQYWFGNQDPVDTVVRTEIVHVWPGTDGFLKDNNNAAQRLLDGMNFMAQSVSELSLGPTKAVTSWLTDQIAPAYWRPNSQILSCNKCATSFKDNDTKHHCRACGEGFCDSCSSKTRPVPERGWGPAPVRVCDNCYEARNVQLAVTEAQVDDEGGTLIARKVGEAVQNTLGAVVTAIDIPLGLVKDAARPAYWVPDHEILHCHNCRKEFSIKLSKHHCRACGQGFCDECSHDRRAVPSRGWDHPVRVCFNCNKKPGDL | soluble
9 | MSLTLKTTEDLFQQSLHEYTITHAIEDKNVLRFHVDYYKPDGKSTPKPGETLAKRAVVDAILSKHDAATGGRRFNAILATASINDAIGYFGLFKTAQAEKQRVEPGYVPLNIAAVFSPPSDVSADVRQLQEDLPQEQEDNKKDSDAKKAALKAIIGDYNTRFGTNHRIEEFDAYYQDVQQRIKDQQFPNADLPDKGREKLDIVIVVDMLLTGFDSKYLNTLYVDKNLKYHGLIQAFSRTNRVLNDTKPYGNILDFRGQQKEVDAAIALFSGAKADKAREIWLVDTAPVVIDKLKEARGSLDSFLASQGLGGKPEDIANLKGTAAKVAFIKHFKDVQKLQTQLDQYTDLTAEQQAQVEAILPKDELRSFRGQYLQKAEELRADQKKAGEGHHHHHH | soluble
10 | MKSTGETLNIEEKVFAIADQFDHQGKIVQIKPFGNGNINDTFLVDLDGQTQTSFILQRINHQVFKNPAAVMGNMVRVTTHIKQKLQRQPLERPWLMPEVILTKNNQDHWDSGTGEFWRAISFIAGSESFDILTDPAQAKEVGTALGIFHQLLSDLSPSQLVDTLPGFHHTPIYLQQYQRALAQNPKLTGSLGPEINHCQRVIKTWLDQCGVLETAKAQGQLPLRLMHGDPKVNNILFDRQSGKAVSVIDLDTTKPGLIHYDLGDCLRSGCNLLGEETENWSAVEFDLDLCRAILEGYLPQCQHFLTAADYDYLCPAIVLISFELGLRFFTDYLNGDRYFKVKYPEHNLIRALVQFQLASHIQSQEDAIRRMIEDIRGLEHHHHHH | not soluble
11 | MRAVVLKGFGGLEMLEERDLPVPEPGPGEVLVRNLAVAVNPVDAKIRAAGRWAGVEPPFVLGYDAAGVVAKVGPGVKDLKEGDEVYYTPEIFGNPHGTYAEYTPVPAGIVAKKPKNLSFAEAAAIPLAGGTAWKAVVRRLAVRPGETVLVMGGAGGVGSFAVQFAKAAGAYVIATASAENLPVLKELGADLALDYRGPWAEEVLKATEGQGVDAAFETAGESLVERVIPVVRPFGRIATILPPQGNLSGLYTKNQTLYGVFLTRERKRLLEMRPLFERGLARPLIAEVLPFSLENLRKAHARMDSGHGRGKIVLTFQA | soluble
12 | MAHHHHHHMGTLEAQTQGPGSMVNWNALRSKAIEVSRHAYAPYSGFPVGAAALVDDGRTVTGCNVENVSYGLGLCAECAVVCALHSGGGGRLVALSCVGPDGGVLMPCGRCRQVLLEHGGPELLIDHAHGPRPLRELLPDAFGPDDLGRR | soluble
13 | MSQLFVRTGIHFSSSQQALEHIGAEMLARGVVHDSYPAALLEREATFPTGIALEKHAVAIPHCEAIHAKSPAIYLIRPDMPVSFQRADDDGEIDVSLIIALIVENPAAQLKLLRRLFSELQNPHTLEALLAASDDRLPVRFQQLILEPELSAVAS | not soluble
14 | MGSDKIHHHHHHMRKPGDFLESGMTESVNEKADVMKVPVPNLALGMYVAAIDHQGRVNITNPGQIKDRQAIDKLVRNGIEYVWVDVERSAPECGLRPKQEPEKIIRLTRDQSQEKAKRLMSEAKDLVKKVLSETFEGKAVKVEPFEALADKMLESVMLDADAFKCISALRSKDAYLLEHSINVAFLLVTFGRYLKLKRSVLKQLAVGGILHDIGKVRVNNRILHKPGRLTPEEFEHMKLHQVYAQEILAETEDLSQISRDVCLMHHEKLDGKGYPNGLKGEEISLHGRMSCIVDIFDALTATRCYKEAMSPAAAFKILLSLTPFHLDEKLVYEFIRCVGIYPVGSLVQLSDGRIGIVWEAKDRDALHPVLKTFYSVKHKHYTEVTMVDLLKSDLFIERGVSPSSLDVDPTPFY | not soluble
15 | MQVLRLMALPLFALSLSVSITGCDQKNDTLQGKQNNMTAFIKKIAASKESEETQRYVGNLNGIEIKLTYYYKGDIVLRQISEHKLLYKTLKANNKEEAQKMLSQVGEAYQGMPGLTERIDYYDSYATEYVDINFTQAKISDLCKLPGSSIDNCSAYYLSMIRSQKLLEESGYHRIN | not soluble
16 | NTATVITVGNYKGGAGKTTNVVLLAYKLAKKGLKVCVLDLDPQSNATKSLLLTKSSLYQDEVVTIEKTLMTGISEKNLDGLEVKIMDNLYLLPSYIDFEDFPKYLYKNTSNQREEDYYLKNIFTPLQGKYDIVLIDVPPMSKAVTRNAVICSDYVLISLQTHERSLSGAESYVEELNKLHNEYDLDLEVVGVLPVIHKNNGSVDQYVMEVAKETFGEDNLFENVVPQMERIKRFDVNGITDKDRHDQKVLNLYDKVSDELLDRINYFEEEKEGAIN | not soluble
17 | MSLIRSMTAYARREIKGEWGSATWEMRSVNQRYLETYFRLPEQFRSLEPVVRERIRSRLTRGKVECTLRYEPDVSAQGELILNEKLAKQLVTAANWVKMQSDEGEINPVDILRWPGVMAAQEQDLDAIAAEILAALDGTLDDFIIARETEGQALKVLIEQRLEGVTAEVAKVRAHMPEILQWQRERLIAKLEDAQVQLENNRLEQELVLLAQRIDVAEELDRLEAHAKETYNILKKKEAVGRRLDFMMQEFNRESNTLASKSINAEVTNSAIELKVLIEQMREQIQNIEEGHHHHHH | soluble
18 | MGSDKIHHHHHHMLNMNFDEQVFINTQEQPWVASPKAGVWRKPLAREDAERGHATSLVKFDPGASFTEHDHPLGEEILVLSGTFSDHTGDYHAGSYFRNPEGFRHAPFSKDGCILLVKLHQFQSGDNEHVVIDTANKSWSPGMGNLMVMPLHSFEGESTALVKWPKDERFQPHKHFGGEEIFVISGEFIDEHGRYPEGSWIRSPHLSEHFPYVEQETIILVKVGHL | not soluble
19 | MEIVDTRTPNSKRFISGVTGDWEVIIGMEVHAQIISNSKLFSGASTKFGAEPNNHVSLIDAAMPGMLPVLNQECVRQAVRTGLGLKARINLRSVFDRKNYFYPDLPQGYQISQFRYPIVGEGKIIISIGPDSNGQFEDIEVGIERLHLEQDAGKSMHDQHPTMSFVDLNRSGVALMEIVSKPDMRSADEAKAYMTKLRTIVRYLGTCDGNMDEGSMRADVNVSVRRPGESFGTRCEIKNVNSIRFIGQAIEYEARRQIAILEDGGVIDQETRLFDAAKGETRSMRSKEEAHDYRYFPDPDLLPLEFDQAFVDALAAELPELPDDIKIRFINEMGLTAYDASILVTEKAIANYFEKVAHGRDGKTVANWVINDLLGALNKDNREIEETPVSPDQLGSIIDLIKEGTISGKIAKDLFEIIWHEGGDPRQIVEERNMKQVTDTKAIERAVDEIMANNSDKVAQAKQKPALAGWFVGQVMKTTGGKANPQTVNELVKLKLGID | not soluble
